Here are results for twelve substances from article PMC4497506.

In assay [1] the target is hexahistidine-tagged soluble four-domain CD4 (UniProt P01730). Nature of the assay: SPR. On the technique in general: Surface plasmon resonance follows binding to a sensor surface in real time, without labels.
The target of assay [2] is mAb F105.
Assay [3] concerns the target HIV-1 YU-2 gp120 F210A (HIV-1 YU-2). Nature of the assay: SPR.
Assay [4] has as its target HIV-1 YU-2 gp120 S375A (HIV-1 YU-2). Briefly: ITC.
In assay [5] the target is HIV-1 YU-2 gp120 W112A (HIV-1 YU-2). Nature of the assay: SPR.
In assay [6] the target is HIV-1 YU-2 gp120 M426A (HIV-1 YU-2). Briefly: SPR.
For assay [7], the target named is wild-type HIV-1 YU-2 Env gp120, soluble monomeric (HIV-1 YU-2) (UniProt P35961). Briefly: SPR.
In assay [8] the target is HIV-1 YU-2 gp120 I109A (HIV-1 YU-2). Briefly: SPR.
Assay [9] has as its target HIV-1 YU-2 gp120 T257A (HIV-1 YU-2). Briefly: ITC.

pIC50, pKd: −log10 of the molar value.

The term pKd denotes the negative decadic logarithm of the Kd, by convention in mol/L. Regarding “HIV-1 YU-2 gp120 W112A (natural protein)”, the pKd is 7.02 in [1] and 7.08 in assay [2]. The pIC50 is the IC50 on a negative log10 scale, so that one unit is a factor of ten. A higher pIC50 goes with a small IC50. Turning to “peptide 1 (sequence-minimized peptide triazole Ile-Asn-Asn-Ile-X-Trp, X = ferrocenyl-triazolePro)”, in [3], the pIC50 was 6.70. For the same substance, the dH in [4] is -9.1 kcal/mol. As for “HIV-1 YU-2 gp120 S375A (natural protein)”, the pKd in assay [1] is 8.21. In [1], “HIV-1 YU-2 gp120 S375W (natural protein)” had a pKd of 8.43.

As for “HIV-1 YU-2 gp120 T257A (natural protein)”, the pKd in assay [1] is 7.99. On to “peptide 2 (peptide 1 with Trp replaced by Tyr)”, for which the pIC50 in assay [5] is less than 4.30; in [3] it was 5.39; in assay [6] it was 5.29; in assay [7], 5.52; in [8] it was 5.51.

Regarding “HIV-1 YU-2 gp120 M426A (natural protein)”, the pKd in assay [1] is 7.23. Substance “HIV-1 YU-2 gp120 T257R (natural protein)” had a pKd in [1] of 7.68. In the case of “HIV-1 YU-2 gp120 S375H (natural protein)”, the pKd in [1] was 8.28. By stoichiometry N is commonly meant a count of units in the complex or per binding partner. In [9], “peptide 4 (peptide 1 with N-methylated indole at Trp 6)” gave a dH of -11 kcal/mol and a stoichiometry N of 1.15. In assay [4], this substance returned a dH of -9.3 kcal/mol and a stoichiometry N of 1.13. In assay [1], “HIV-1 YU-2 gp120 I109A (natural protein)” showed a pKd of 8.17. On to “HIV-1 YU-2 gp120 F210A (natural protein)”, for which the pKd in assay [1] was 6.64.
